# Results: patent US20240108738A1, “BICYCLIC PEPTIDE LIGANDS SPECIFIC FOR NK CELLS” (Bicycle Tx Limited, priority 2021, published 2024)
# Numbered stars: 1 amine (or outer) side, 2 acyl side, 3 side chain; on linkers, the order of the positions; unused ones are H or OH. Bridge positions count the residues as written; N and C are the ends. Ends that are not written are not given here. * marks the point of attachment. TBMT = 2,4,6-tris(bromomethyl)-s-triazine, C(c1nc(C[*:2])nc(C[*:3])n1)[*:1]; Pent4ynoyl = C#CCCC(=O)*
# Molecular target: Human NKp46 Fc tag (Acro Biosystems, NC1-H5257) (human), O76036
# Sequence (O76036 22-255 limits assumed): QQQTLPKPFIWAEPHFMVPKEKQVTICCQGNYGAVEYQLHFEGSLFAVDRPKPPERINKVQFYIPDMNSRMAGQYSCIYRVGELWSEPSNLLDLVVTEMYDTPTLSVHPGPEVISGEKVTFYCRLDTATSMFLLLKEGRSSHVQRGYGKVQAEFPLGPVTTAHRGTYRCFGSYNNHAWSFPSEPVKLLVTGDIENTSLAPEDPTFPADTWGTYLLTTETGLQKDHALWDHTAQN
# Assay: SPR Method 1 and/or 2
row,Kd,Binder
1,6410 nM,CNLQAPCMLTGKVC (modifications not checked) [BCY18295]
2,1660 nM,ACLLHDHCPNTHPKLCA (modifications not checked) [BCY15103]
3,2510 nM,CNLQAPCMLTGKVCA (modifications not checked) [BCY19694]
4,5380 nM,ACNLQAPCMLAGKVCA (modifications not checked) [BCY18302]
5,2380 nM,KCNLQAPCMLTGKVCA (modifications not checked) [BCY19695]
6,2680 nM,ACNLQAPCMVTGKVCA (modifications not checked) [BCY19702]
7,3140 nM,ACNLQAPCLHTGKVCA (modifications not checked) [BCY19712]
8,3760 nM,ACDLTTHNCVWGICA (modifications not checked) [BCY18285]
9,3730 nM,ACLLHDHCPNSHPEICA (modifications not checked) [BCY15105]
10,4030 nM,ACNLQAPCMATGKVCA (modifications not checked) [BCY18301]
11,2880 nM,ACLLHEHCPNTHPKMCA (modifications not checked) [BCY15104]
12,1830 nM,ACNLQQACMQTGKVCA (modifications not checked) [BCY19713]
13,1530 nM,ACNLQAPCMLTGAVCA (modifications not checked) [BCY18304]
14,1520 nM,ACDLQTHNCQWGICA (modifications not checked) [BCY18277]
15,2670 nM,ACLLHDHCPNTHPIICA (modifications not checked) [BCY15106]
16,1110 nM,CDLTTHNCQWGICA (modifications not checked) [BCY19718]
17,1800 nM,ACNLQAACMLTGKVCA (modifications not checked) [BCY18299]
18,2270 nM,ACLLHDHCPNTHPKMCA (modifications not checked) [BCY14457]
19,2750 nM,ACNLQAPCMHTGKVCA (modifications not checked) [BCY19711]
20,1090 nM,ACNLQNPCMKFPCA (modifications not checked) [BCY15102]
21,1640 nM,ACDLTTHNCAWGICA (modifications not checked) [BCY18269]
22,1510 nM,ACNLQAPCMETGKVCA (modifications not checked) [BCY18316]
23,1480 nM,ACDLATHNCQWGICA (modifications not checked) [BCY18265]
24,1260 nM,ACDLTTHNCIWGVCA (modifications not checked) [BCY14458]
25,1920 nM,ACNLQAPCMYTGKVCA (modifications not checked) [BCY18318]
26,3190 nM,ACDLTTHNCQWGACA (modifications not checked) [BCY18272]
27,2760 nM,ACNLQQACLHTGKVCA (modifications not checked) [BCY14454]

# Molecular target: biotinylated human FcγRIII (CD16a), variant not stated (human) (UniProt P08637)
# Sequence (P08637 17-208, change not shown): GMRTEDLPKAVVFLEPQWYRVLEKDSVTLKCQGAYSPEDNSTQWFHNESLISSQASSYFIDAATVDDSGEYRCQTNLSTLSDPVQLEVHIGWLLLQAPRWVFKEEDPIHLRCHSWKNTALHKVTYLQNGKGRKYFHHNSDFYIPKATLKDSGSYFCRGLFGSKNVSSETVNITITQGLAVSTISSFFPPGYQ
# Assay: SPR Method A
row,Kd,Binder
1,1800 nM,ACRWSVEDPCGAWCAK(Pent4ynoyl)-NH2 (linker 2-10-14 via TBMT (inferred)) [BCY13883]
2,2200 nM,ACVGLEELGPCSDLCAK(Pent4ynoyl)-NH2 (linker 2-11-15 via TBMT (inferred)) [BCY13886]
